Biological target: djb11_human DNAJB11 (UniProt Q9UBS4)
Sequence (Q9UBS4 whole entry): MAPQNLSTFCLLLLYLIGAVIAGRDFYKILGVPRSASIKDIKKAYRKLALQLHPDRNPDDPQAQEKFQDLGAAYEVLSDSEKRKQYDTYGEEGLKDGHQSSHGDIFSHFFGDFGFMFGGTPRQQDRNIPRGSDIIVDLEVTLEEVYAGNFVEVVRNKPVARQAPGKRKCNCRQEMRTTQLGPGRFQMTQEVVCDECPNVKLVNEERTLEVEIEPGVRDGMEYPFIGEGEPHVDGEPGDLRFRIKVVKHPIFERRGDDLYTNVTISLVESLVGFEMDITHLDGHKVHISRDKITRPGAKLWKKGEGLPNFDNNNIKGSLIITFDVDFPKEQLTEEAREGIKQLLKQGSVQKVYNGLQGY

In the case of “Endoplasmic reticulum chaperone BiP (Mesocricetus auratus (Golden hamster)), P07823 R197E”, the “effect of a mutation on the interaction” value is reported as “disrupting interaction”.

Reference: IntAct's records for PubMed 18203820
